In a protein production outcome set (Wang et al. 2014) one finds protein production data, which are given here for six sequences.

The data set is described as follows: label from the status in PepcDB records.

Turning to “MLLGSCWRIARGVETVPYPWPKWLPIPVLATTVGVAAVVIGVRQLGLLQPSELSLYDFYVRSQPPRDPDSRILTVLVTEQDIQAQKTWPLPDATVAELLTRLNAASPRAIGLDIFRDLPQPPGHDELQNMIRINPRIIPVCKSPGETVEQPEVPPPPSIPTAQVPERVGFADIPLDSDGVIRRNLFVINNPKAQRCTTPFSFALMLALRYLEQDPSQTIKLDDKGLTLNDVHFPLLTSDAGGYVAVDDRGMQTLLKYRSRTAVGPTVSLTDVLTGRVSEDLIRDRVVLIGVSAPSIKDTFLTPYSGSDAVTQQMPGVVVHGQMVSQFLSAALEGEGPIWYWPVPLVLGWILLWAGVGSILGWWLRQPLWLGGAVVGGIIVLFGGGFGIFVMASGWIPVVPPAIALVLSSVGMVGYVSYQAQQEQKSFREKVQEQEKALALLRSLMAEDTAALNAALREPTEITGKPRSLLSGRYKIQKVLGSGGFGRTYLAQDTQRPGNPLCVVKHLRPGRTDERFMQVARRLFNTEAEILEKLGRHDQIPLLLAYVEENREFYLVQEFIDGVSLSEELKRKHTEAEAIQLLREILEVLNFVHSHYVIHRDIKPDNIIRRASDRKLVLIDFGAVKQIQPQEAERTQGSTVVIGTMGYAPPEQLSGQPTLSSDIYAVGMIVLQALTGIKPRDLPRDPRTGEVDWQQCVTVSEGLAVVLNKMVKFNFSDRYPSAKEALQDARRLGTPAASVS”, the protein production entry was “failed”.

For “MLLILAILPIVVTVGLGVFAGLRHQFAPTTSDILIQLVMHYALPLSLFGGILSLKRATIIQNSSVALWLALGMLGGMVIVIVSQCCFHQQLETGTLRALVIASPSIPFMGVSVLLVVFGKISVLLVALGGLYMNLVQVPVSVLLLTLAGGSTPEQRWRAGWQKLCRASRQPVVWAPISAFLLNLAGLRLPSAWLTNFTELGQAAGGVALFALGLLLTTRPWRLTRMVVLNVLLKNLGLPVLIWGIMASLGVSLSNQQLVVLTLAIPTATIATMLAVQNHLAPDEYVATQMLSTVIAPLTMGFLMWGLQLV”, the protein production result is reported as “failed”.

For “MLLLSIYISIAIGISFICSVLEAVLLSISPSYIAQLNQQGHPAAEQLSKLKSDIDRPLASILTLNTIAHTIGAATAGAQAAVVFGSEALGIFSAVLTLAILVLSEIVPKTIGATYWRQLAPAAAVSLRWMVWALTPFVWFSEQITKRLARNHEAPKMRDELSAMAILARESGEFAEGESKILSNLLGIQDVPVTQVMTPRPVVFRVDATMTINEFLDKHKDTPFSRPLVYSEQKDNIIGFVHRLELFKMQQSGSGQKQLGAVMRPIQVVLNNTALPKVFDQMMTHRLQLALVVDEYGTVLGLVTLEDIFEHLVGEEIIDEADKSTDMQELAYQRWESWKEMHGVIESRDDDDEELEKQNVEPETQEPTKPDSKES”, the protein production entry is recorded as “failed”.

For the sequence “MLLTQYEKYKRGFKFDHVWPILKGIEKFANDNMMTPASSPSPGMNSIDLNMDSEDANFSLSSRPMGLKKTKLKQLLEQNDKLIKAITKGTSERNEIQRQKIEVDRMKEENKILFADLNSISDPSSRAYIENERKRILEKRAQTNQHEEDGEGSQYHGSQYRASHYQESPSHGKQVQGEPDQGEDQRSPNNQEDFTQYYNYLSGTENIFP”, the protein production entry is reported as “failed”.

Consider “MLLYIHVPFCRRKCRYCAFHSLPLIGEGGTSPAPEALQTPHADTAITAGPTAASTALAGVAPVTPSAQAISGQDGHTSTKGHGVPPESPPGPTANAAGMSGGIAGIVDRAGGAMRSCTPAEALPAYVETLFSELALWGDRLGNATVETIFFGGGTPSLLPPHVVAAILDRVHRTFSVAPGAEISLEANPESLSNRQQARGLYDAGVNRLSLGVQALDDALLHLMGRPHRARDAIRAFNAARDAGFTNISLDFIWGLPGQRLRQWLDQLREVVRLRPEHLSCYGLTLEEGTPLTADVESGSIALPVEREQAAMFMQGAERLEEAGYLQYEISNFARMGFQCHHNLGYWEGRDYLGLGPSATSTIDGLRWTNPYDHGAWHESVRTGRIGADAERLDLTVRVLELVMLRLRTTRGLRVKAYRELTGRDFLRDHKPLVHLLHRNGLVRIRDGYLRLTRNGMLVSNSILERFFERSETLLTLESTEKTHETRMAGPISGDTP”, for which the protein production entry is “failed”.

Take “MLMTLAATTSVSFNSKLLLFRIRCSDSNPKRGFGSKKEEKDPALQQRKSSSKQSVSVPRKAPGLNTQFEGKSGRSFDIDFDERLENIRRSALEQKKTEVVKEFGPIDYDAPVKSDQKTIGLGTKVGVGIAVVVFGLVFALGDFLPTGSDSPTKNTTVVKNQISEEEKATLQQRLKEFETTLNGTPQDQAALEGAAVTLTELGDYSRAAAFLEKLAKERPTDPDVFRLLGEVNYELNNYEGSIAAYKISEKVSKGIDLEVTRGLMNAYLAAKKPDEAVKFLLDTRERLNTKKTSTTDSVTDETNLDPIQVELLLGKAYSDWGHISDAIAVYDQLISAHPEDFRGYLAKGIILRENGSRGDAERMFIQARFFAPNKAKALVDRYSKL”: the protein production entry was “failed”.
